The values below come from publication PMC6380423 (mAbs, 2019).

The target in data set [1] is B cell receptor (BCR) (human (endogenous in Ramos)). The data set is described as follows: FRET or BRET. (In general: Bioluminescence resonance energy transfer reports proximity on the nanometre scale.)
The data set “FRET or BRET” deals with the molecule itself. The data set is described as follows: FRET or BRET.

Consider “CD19 (from UniProt P15391 20-556) (receptor)”, for which, in data set [1], the normalized FCET at 30 min of BCR stimulation is 2.6 units; the normalized FCET at 30 min of BCR stimulation, with the CD47xCD19 biAb turned out to be 1.5 units; the normalized FCET at 1 hour of BCR stimulation stood at 3.6 units; the normalized FCET at 1 hour of BCR stimulation, with the CD47xCD19 biAb was determined as 1.9 units.

B1: CD19 (receptor)
chain: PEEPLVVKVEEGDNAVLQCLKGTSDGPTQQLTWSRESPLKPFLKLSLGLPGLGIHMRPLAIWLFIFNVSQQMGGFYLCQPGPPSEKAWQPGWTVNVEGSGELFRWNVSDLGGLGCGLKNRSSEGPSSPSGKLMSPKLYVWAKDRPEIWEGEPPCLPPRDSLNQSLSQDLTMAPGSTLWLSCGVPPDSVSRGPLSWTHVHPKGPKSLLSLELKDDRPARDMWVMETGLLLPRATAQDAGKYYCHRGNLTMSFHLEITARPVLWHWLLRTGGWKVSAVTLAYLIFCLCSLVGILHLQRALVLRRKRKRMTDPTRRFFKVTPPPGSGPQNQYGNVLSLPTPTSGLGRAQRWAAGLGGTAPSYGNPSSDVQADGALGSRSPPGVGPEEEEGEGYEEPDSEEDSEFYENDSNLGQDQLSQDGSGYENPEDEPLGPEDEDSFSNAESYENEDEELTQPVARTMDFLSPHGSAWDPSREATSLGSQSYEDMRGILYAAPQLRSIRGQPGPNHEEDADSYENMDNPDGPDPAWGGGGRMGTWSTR
For the molecule B1, in the data set “FRET or BRET”, the “normalized FCET (fold over baseline), with the bivalent anti-CD19 mAb” value turned out to be 8.2 fold.

B2: CD20 (receptor)
chain: MTTPRNSVNGTFPAEPMKGPIAMQSGPKPLFRRMSSLVGPTQSFFMRESKTLGAVQIMNGLFHIALGGLLMIPAGIYAPICVTVWYPLWGGIMYIISGSLLAATEKNSRKCLVKGKMIMNSLSLFAAISGMILSIMDILNIKISHFLKMESLNFIRAHTPYINIYNCEPANPSEKNSPSTQYCYSIQSLFLGILSVMLIFAFFQELVIAGIVENEWKRTCSRPKSNIVLLSAEEKKEQTIEIKEEVVGLTETSSQPKNEEDIEIIPIQEEEEEETETNFPEPPQDQESSPIENDSSP
In the case of B2, in the data set “FRET or BRET”, the “normalized FCET (fold over baseline), with the anti-CD20 mAb rituximab” value came to 6.7 fold.
